We go through 133 substances from the supplement of paper PMC12042874.

± gives the uncertainty stated by the source.

This data set is described as follows: amyloid nucleation score (Sup35N fusion, yeast selection) (log enrichment); library NNK3; higher = more nucleation; inactive = no reads after selection. In short, it runs like this: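 Sup35N was fused to peptides of 20 random codons and expressed in psi-negative yeast, which were induced with 100 μM copper sulfate for 24 hours and then grown on medium lacking adenine and uracil for 7 days at 30°C. Plasmid inserts from input and output were sequenced on Illumina. The nucleation score is the DiMSum log enrichment of output over input reads, centred on the mode score of non-aggregating sequences. Sequences with under 100 input reads were left out, and random libraries had three technical output replicates.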
Turning to GPVSYHMRCLYTGLSIPHLF, the amyloid nucleation score result is “inactive”.

With GRAPYMWC, the amyloid nucleation score was -0.955 ± 2.4. With GRARMFGLGRVFKVCMKLRA, the amyloid nucleation score is -0.543 ± 0.54. For the substance GRDMMWAVCDFEAKLELETG, the amyloid nucleation score result is “inactive”. Take GRGIYGIIARASAPVRRSLV: the amyloid nucleation score entry is “inactive”. GRPHEPGKFIRNSSIGSGS displayed an amyloid nucleation score of -0.479 ± 1.1. In the case of GRRRIRNCVSRACLMYIQHV it was 0.434 ± 0.23; in that of GRSLVYR, “inactive”. With GRSSRCWGGMCRGGNLCEEF, the amyloid nucleation score result is “inactive”. The entry for GRVFRCTPEVFIK is “inactive”; for GRWGGDYFCVGNFMG it is “inactive”; for GRYVCRL it is -0.459 ± 0.9.

As to GSEMVAGHS, the amyloid nucleation score entry was “inactive”. Regarding GSFGYNCVKFHSDGFQAGRG, the amyloid nucleation score result is “inactive”. On to GSFYCLYFVGDVIIILTCLR, for which the amyloid nucleation score result is “inactive”.

For the substance GSGMGL, the amyloid nucleation score result is “inactive”. In the case of GSGVRGQRMSGKCR, the amyloid nucleation score turned out to be 0.164 ± 0.42. Take GSGYVTGGSSLLRARWSRGG: the amyloid nucleation score turned out to be 1.26 ± 0.17. Turning to GSHELHWSVGYQESVLLRYH, the amyloid nucleation score entry is “inactive”.

Regarding GSMLKAMELSDVVGSCIY, the amyloid nucleation score entry is “inactive”. In the case of GSNVNEVKNAQYTSRVGVCR, the amyloid nucleation score entry was “inactive”.

Consider GSNYSWSLLL, for which the amyloid nucleation score result is “inactive”. For the substance GSRLAGLVVYDFSLSQWYFS, the amyloid nucleation score was 2.84 ± 0.079.

As for GSSISRRDFNVAILFWWQGD, the amyloid nucleation score entry was “inactive”.

GSSYGVIIVQYYP came in with an amyloid nucleation score of 2.02 ± 0.076.

Turning to GSVSYISLSDNWVSGRKK, the amyloid nucleation score entry is “inactive”. Consider GSWDI, for which the amyloid nucleation score result is “inactive”. As to GTDWCTRHMPGIDPCDSVVC, the amyloid nucleation score was -0.557 ± 1. In the case of GTEVILSLVSESTGKRAARL it was “inactive”; in that of GTGWVTSVFLCTVNWVDHRR, 2.4 ± 0.084; in that of GTKWSATITGWV, “inactive”. Regarding GTNFALRHGMIILSRLWAYW, the amyloid nucleation score entry was “inactive”. For GTPALCQ, the amyloid nucleation score entry is “inactive”. Substance GTRNMKPLTKAETSRLG returned an amyloid nucleation score of 0.139 ± 0.45. Turning to GTSMSRPDIVTDKVMPFLRR, the amyloid nucleation score entry was “inactive”. As for GVEIRYLQQ, the amyloid nucleation score result is “inactive”.

The substance GVFFFNYLNS showed an amyloid nucleation score of 0.63 ± 0.14.

On to GVFMLVSNFASNWAT, for which the amyloid nucleation score entry is “inactive”. With GVGLIE, the amyloid nucleation score entry is “inactive”. Take GVHIMRGGGIYVVGGLESWA: the amyloid nucleation score result is “inactive”. The entry for GVKCPKKTNRQWGIVALMRP is “inactive”; for GVKVSDMSPDRDNLWFSRCS it is “inactive”.

Substance GVLCMWHLCFDVCDGKIIGG gave an amyloid nucleation score of 1.74 ± 0.078. The substance GVLQLNVIVTYFVMDMCSWL yielded an amyloid nucleation score of 1.78 ± 0.095.

On to GVMYQACWSLASTYFTVNSS, for which the amyloid nucleation score result was “inactive”.

Consider GVNDRGDENGVVGA, for which the amyloid nucleation score entry was “inactive”.

In the case of GVSRGLSLPRSLKYRYCCAV, the amyloid nucleation score entry was “inactive”. In the case of GVSRLETGNFAASPMMHYKG, the amyloid nucleation score result is “inactive”. In the case of GVVLSYNGTFWRVLINHHMC, the amyloid nucleation score result was “inactive”.

As to GVWVA, the amyloid nucleation score was -0.931 ± 1.9. Turning to GVYMLLDVPYGTASTSAMGS, the amyloid nucleation score entry was “inactive”. Consider GVYSVSLLVLWMSMRASIAC, for which the amyloid nucleation score entry is “inactive”. The substance GWAGGSLNARMSRWF came in with an amyloid nucleation score of 0.881 ± 0.17. Take GWPVSLN: the amyloid nucleation score entry was “inactive”. With GWVFTMDFTSYLECTDMGRS, the amyloid nucleation score entry is “inactive”.

Turning to GWVYDMVYYRSVKMGCAKRS, the amyloid nucleation score turned out to be 0.389 ± 0.22. As for GYDAGAWPRWRRSIWVHGYG, the amyloid nucleation score result was “inactive”. Substance GYGSAQCQFRWWYCFE displayed an amyloid nucleation score of -0.317 ± 0.65.

On to GYICLGPPAVTVIYVRICRQ, for which the amyloid nucleation score was -0.495 ± 1. In turn, GYILVLYADRAKICDKFYVG had an amyloid nucleation score of 2.27 ± 0.05. The entry for GYLIIVIRLSAIDRHQ is “inactive”. GYLRNMVWRMSQYIREVCPR: the amyloid nucleation score entry was “inactive”. As to GYRDLRGWNVNRKDSLVS, the amyloid nucleation score entry was “inactive”. For the substance GYSKNI, the amyloid nucleation score result is “inactive”. GYVGLHTFSWEDLENRMDKH: the amyloid nucleation score result was “inactive”. On to HAFYALDKKVPVTQLKFARQ, for which the amyloid nucleation score is -0.315 ± 0.84. The entry for HALGVSGRFDNNVVIFARGS is “inactive”; for HALSRDVVKMLCSFNNYLTW it is “inactive”. For the substance HANCANRLNYLYVLYRAS, the amyloid nucleation score entry is “inactive”. On to HCSYCVVSE, for which the amyloid nucleation score entry was “inactive”.

For the substance HCVNRRKQYVRIRTYARLPC, the amyloid nucleation score result is “inactive”. HDLAETCGSSPI: the amyloid nucleation score entry is “inactive”.

Take HDVDLGWFSRYGIFRALRRE: the amyloid nucleation score entry was “inactive”.

Regarding HDYDAIRRLSRMCDVVEYSR, the amyloid nucleation score entry is “inactive”. As to HEISSICTRFWANSLIRMSC, the amyloid nucleation score entry is “inactive”. The entry for HEYECGWIGVVFTMILMSLS is “inactive”; for HFAYRFCYLANRRRDVYRSA it is “inactive”; for HFCPVRKGGAGIRYFYCSCW it is 1.7 ± 0.12. HFFLLMLSYSYYDCVFRYKC: the amyloid nucleation score result is “inactive”. As for HFNRVLVPYAFSFIGKMEWF, the amyloid nucleation score result was “inactive”. As to HGKKRNGRSPYINGFYLCYW, the amyloid nucleation score entry is “inactive”. As for HGRAYSRNT, the amyloid nucleation score result is “inactive”. With HGVNT, the amyloid nucleation score result is “inactive”. As for HGVPYAIEASMLMFYLTFWR, the amyloid nucleation score entry was “inactive”. Substance HHGWVVYNWVDKVINSHIVG registered an amyloid nucleation score of 0.478 ± 0.28. Take HHHSATLYFTFMSVTE: the amyloid nucleation score entry was “inactive”. With HHKITCLNRW, the amyloid nucleation score result was “inactive”. In the case of HIFFFSPKSVVHVIASRGCL it was 1.59 ± 0.081; in that of HISGYNDYMFDP, “inactive”.

In the case of HITLKSYARIV, the amyloid nucleation score entry was “inactive”.

Substance HITLRYLNL displayed an amyloid nucleation score of 0.692 ± 0.12. HIVSRP: the amyloid nucleation score result was “inactive”.

In the case of HKDMVNASLPGITSARWLGR, the amyloid nucleation score result was “inactive”. For HKEVMKNLCIFYPTDEMYRV, the amyloid nucleation score entry was “inactive”.

As to HKFFAYDGGDRKRGIFGGWL, the amyloid nucleation score was found to be 1.25 ± 0.1. Turning to HKLYEWACSRSTALNYIGQI, the amyloid nucleation score entry is “inactive”. As for HKMRRSLQFNEMGLFSPKVY, the amyloid nucleation score entry was “inactive”.

In the case of HKRTTNIPFRFSNLC, the amyloid nucleation score result is “inactive”.

As to HKTLFIFS, the amyloid nucleation score entry is “inactive”. Take HKWSAAIEIGSVKDNRIKLL: the amyloid nucleation score result is “inactive”. Turning to HKYLWCIPWETLCKTWPFFS, the amyloid nucleation score result was “inactive”. HLCAVHKQFFYGSTGGVYTR: the amyloid nucleation score entry is “inactive”. For the substance HLCDFPLEVKTLFFLL, the amyloid nucleation score was found to be 0.508 ± 0.17. Turning to HLCRFYSSFGDSTSSRLSGN, the amyloid nucleation score entry was “inactive”. For HLGDGTA, the amyloid nucleation score entry is “inactive”. In the case of HLGFF it was “inactive”; in that of HLGKRNEKNTVLARLNFGQ, “inactive”. Turning to HLGVGG, the amyloid nucleation score result was “inactive”.

As to HLMFCNHMALCVFFLQQEF, the amyloid nucleation score came to 2.21 ± 0.074. In the case of HLNGVALFNW, the amyloid nucleation score came out at 0.917 ± 0.11.

Regarding HLRWMTEKGPVRNVCVRGCH, the amyloid nucleation score entry is “inactive”. The entry for HLTIVDWSPRESSSWIMRFT is “inactive”.

HLVCYLWE gave an amyloid nucleation score of 1.71 ± 0.093. As for HMCCKYVPRNKSGSLVFKRG, the amyloid nucleation score entry was “inactive”. In the case of HMCIG it was “inactive”; in that of HMNDASPGTAKFEIV, “inactive”.

In the case of HMPDFVCLFNHVMPWIWIRV, the amyloid nucleation score entry was “inactive”. HNASGCWWDSALPITFRRLG: the amyloid nucleation score entry was “inactive”. Regarding HNASKRMDICKASSVYKWRI, the amyloid nucleation score entry was “inactive”. As to HNNTIVASWRHDNRACA, the amyloid nucleation score result was “inactive”. In the case of HNNYHYIVRSFVGI, the amyloid nucleation score turned out to be 1.01 ± 0.28. Regarding HNQTDSASVIWFSYVWAFVG, the amyloid nucleation score entry was “inactive”. With HNRKYYTI, the amyloid nucleation score result is “inactive”.

With HPGFTWY, the amyloid nucleation score entry was “inactive”. For the substance HPVGACCLQLRFGLYCICVA, the amyloid nucleation score came to 0.023 ± 0.26.

As to HQKALTAVMWFNNRRGGLFG, the amyloid nucleation score entry was “inactive”.

With HRDNLWRWNFFCPNY, the amyloid nucleation score turned out to be 0.993 ± 0.12. For HRKKYFLSPIVGPRTPRLCT, the amyloid nucleation score entry was “inactive”. For HRPRLGI, the amyloid nucleation score entry was “inactive”.

As for HRRIPL, the amyloid nucleation score entry is “inactive”. In the case of HRTCITTNDDCLSRGTLP it was “inactive”; in that of HRTLVMGP, “inactive”; in that of HRYASVGSTYWGYKVDLLWC, “inactive”.
